Test results from patent US20240101688A1 (MYTHIC THERAPEUTICS, published 2024).

Tests used:
[1] = target: T1, MET (cMET, Sino Biological Cat. No. 10692-H08H) (UniProt P08581 25-932); assay: BLI: antibody captured on anti-human Fc biosensor, MET in solution; association at pH 7.4 (0-120 s), dissociation at pH 7.4 (black trace) or pH 5.4 (grey trace)
T1 construct: Soluble analyte of the BLI assays
Protocol: After allowing for four days of protein expression, cell culture supernatants were collected, quantified by SDS-PAGE analysis, and the pH dependence of the variant was evaluated using biolayer interferometry (BLI) on an Octet RED 96e instrument. Briefly, cell culture supernatants were diluted based on qualitative expression level of the variant determined by visual examination of SDS-PAGE gels, 5 μL of cell culture supernatant was diluted into 195 μL of 1×PBST, pH 7.4 for high expressors, 25 μL of cell culture supernatant was diluted into 175 μL of 1×PBST, pH 7.4 for medium expressors and 100 μL of cell culture supernatant was diluted into 100 μL of 1×PBST, pH 7.4 for low expressors for loading onto the sensor tips. Diluted supernatants were then captured on an anti-human Fc sensor (Forte Bio). A baseline was established using 1×PBST (50 mM Potassium Phosphate Buffer+150 mM NaCl+0.05% Tween 20), pH 7.4, and the sensor was associated with 50 nM of MET (cMET, Sino Biological Cat. No. 10692-H08H) in 1×PBST, pH 7.4, for 120 sec to generate an association curve. In the dissociation phase, the antibody-antigen complex on the sensor was exposed to 1×PBST, pH 7.4 or pH 5.4, for 300-600 sec.

[2] = target: T2, MET Proto-Oncogene, Receptor Tyrosine Kinase (MET), on cells (human, UniProt P08581 25-1390); assay: affinity on HUVEC against affinity on Detroit-562, flow cytometry, pH 7.4
T2 construct: also called cMET; c-Met
T2 sequence (P08581 25-1390): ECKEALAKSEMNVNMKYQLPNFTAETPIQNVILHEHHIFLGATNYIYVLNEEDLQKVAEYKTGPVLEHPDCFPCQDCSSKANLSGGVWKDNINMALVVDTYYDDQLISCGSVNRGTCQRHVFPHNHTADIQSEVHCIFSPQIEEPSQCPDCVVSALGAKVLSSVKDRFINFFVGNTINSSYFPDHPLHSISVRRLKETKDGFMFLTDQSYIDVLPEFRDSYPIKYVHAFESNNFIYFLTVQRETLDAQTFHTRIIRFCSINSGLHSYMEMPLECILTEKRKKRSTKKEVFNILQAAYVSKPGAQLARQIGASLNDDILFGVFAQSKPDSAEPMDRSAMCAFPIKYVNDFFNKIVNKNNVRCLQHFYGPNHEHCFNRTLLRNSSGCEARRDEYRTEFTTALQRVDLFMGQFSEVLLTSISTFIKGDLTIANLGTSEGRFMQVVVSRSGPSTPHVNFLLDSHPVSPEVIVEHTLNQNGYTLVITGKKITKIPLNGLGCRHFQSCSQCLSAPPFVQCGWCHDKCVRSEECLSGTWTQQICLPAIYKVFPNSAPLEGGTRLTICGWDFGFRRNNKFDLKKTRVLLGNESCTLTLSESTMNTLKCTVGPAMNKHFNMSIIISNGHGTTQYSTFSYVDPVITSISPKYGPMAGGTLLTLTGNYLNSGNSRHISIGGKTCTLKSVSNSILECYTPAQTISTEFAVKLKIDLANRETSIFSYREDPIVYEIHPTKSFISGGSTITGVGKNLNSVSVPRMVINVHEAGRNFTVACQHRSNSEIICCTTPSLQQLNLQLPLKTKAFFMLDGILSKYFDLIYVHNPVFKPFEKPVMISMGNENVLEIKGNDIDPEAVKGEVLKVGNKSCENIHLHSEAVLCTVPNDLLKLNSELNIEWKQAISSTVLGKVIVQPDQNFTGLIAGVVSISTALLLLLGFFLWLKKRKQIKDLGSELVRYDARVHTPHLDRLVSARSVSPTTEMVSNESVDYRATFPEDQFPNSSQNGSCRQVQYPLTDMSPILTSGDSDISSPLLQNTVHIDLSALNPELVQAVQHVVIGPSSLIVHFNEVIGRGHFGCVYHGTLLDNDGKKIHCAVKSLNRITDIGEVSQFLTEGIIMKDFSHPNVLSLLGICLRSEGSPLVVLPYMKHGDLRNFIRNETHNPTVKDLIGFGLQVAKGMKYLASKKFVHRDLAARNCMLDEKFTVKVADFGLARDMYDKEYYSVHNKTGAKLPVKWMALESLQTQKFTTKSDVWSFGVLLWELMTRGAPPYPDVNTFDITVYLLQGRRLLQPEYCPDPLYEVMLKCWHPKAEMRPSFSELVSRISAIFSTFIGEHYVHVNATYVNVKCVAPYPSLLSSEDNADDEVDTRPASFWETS
Protocol: (§1) Measurement of the affinity of pH-engineered antibodies specific for MET was performed by FACS analysis on cell lines with ranges of cMET expression; Detroit-562 cells (ATCC; CCL-138), NCI-H1975 (ATCC CRL-5908) and HUVEC (C2519A, Lonza). Cell lines selected for this study were obtained from commercial sources and cultured using manufacturer recommended conditions. All cell lines were cultured upon receipt, expanded and cryopreserved at a similar passage number for use in the affinity experiments. Briefly, 1.0×10\hat{ }5 cells that express MET are plated per well in a 96-well plate in 100 μL media. The cells are washed two times with 200 μL of FACS buffer (1×PBS containing 3% Fetal Bovine Serum) at pH 7.4. The purified protein samples are diluted into FACS buffer at pH 7.4, for a titration from 100 nM to 1 pM, and added to the cells and allowed to bind for 2 hours on ice. After incubation with the primary antibodies, cells are washed twice as before, and then 100 μl of secondary goat anti-Human AF488 (IgG Cross-Adsorbed polyclonal secondary antibody), diluted 1:200, is added in FACS buffer pH 7.4, and incubated for 1 hour on ice. The plates are washed twice Binding is read on a flow cytometer (Accuri C6, BD Biosciences). Binding is observed as a shift in the FL1 signal (as a mean fluorescence intensity) versus secondary alone.

[3] = target: T2, MET Proto-Oncogene, Receptor Tyrosine …; assay: flow cytometry titration on Detroit-562 cells (125K/cell), pH 7.4; printed as Affinity at pH 7.4
Protocol: as §1

[4] = target: T2, MET Proto-Oncogene, Receptor Tyrosine …; assay: flow cytometry titration on HUVEC cells (8k/cell), pH 7.4; printed as Affinity at pH 7.4
Protocol: as §1

[5] = target: T1, MET (cMET, Sino Biological Cat. No. …); assay: BLI: antibody captured on anti-human Fc biosensor, MET in solution; three runs: pH 7.4 throughout (black), pH 6.4 throughout (light grey), association at pH 7.4 then release at lower pH (dark grey; key on D00015: pH 5.4; legend paragraph 84: pH 6.4); association 0-120 s
[6] = target: T1, MET (cMET, Sino Biological Cat. No. …); assay: as above; remark: listed apart in the source
[7] = target: T1, MET (cMET, Sino Biological Cat. No. …); assay: as above; remark: listed apart in the source
[8] = target: T1, MET (cMET, Sino Biological Cat. No. …); assay: as above; remark: listed apart in the source

T1 sequence (P08581 25-932 limits assumed): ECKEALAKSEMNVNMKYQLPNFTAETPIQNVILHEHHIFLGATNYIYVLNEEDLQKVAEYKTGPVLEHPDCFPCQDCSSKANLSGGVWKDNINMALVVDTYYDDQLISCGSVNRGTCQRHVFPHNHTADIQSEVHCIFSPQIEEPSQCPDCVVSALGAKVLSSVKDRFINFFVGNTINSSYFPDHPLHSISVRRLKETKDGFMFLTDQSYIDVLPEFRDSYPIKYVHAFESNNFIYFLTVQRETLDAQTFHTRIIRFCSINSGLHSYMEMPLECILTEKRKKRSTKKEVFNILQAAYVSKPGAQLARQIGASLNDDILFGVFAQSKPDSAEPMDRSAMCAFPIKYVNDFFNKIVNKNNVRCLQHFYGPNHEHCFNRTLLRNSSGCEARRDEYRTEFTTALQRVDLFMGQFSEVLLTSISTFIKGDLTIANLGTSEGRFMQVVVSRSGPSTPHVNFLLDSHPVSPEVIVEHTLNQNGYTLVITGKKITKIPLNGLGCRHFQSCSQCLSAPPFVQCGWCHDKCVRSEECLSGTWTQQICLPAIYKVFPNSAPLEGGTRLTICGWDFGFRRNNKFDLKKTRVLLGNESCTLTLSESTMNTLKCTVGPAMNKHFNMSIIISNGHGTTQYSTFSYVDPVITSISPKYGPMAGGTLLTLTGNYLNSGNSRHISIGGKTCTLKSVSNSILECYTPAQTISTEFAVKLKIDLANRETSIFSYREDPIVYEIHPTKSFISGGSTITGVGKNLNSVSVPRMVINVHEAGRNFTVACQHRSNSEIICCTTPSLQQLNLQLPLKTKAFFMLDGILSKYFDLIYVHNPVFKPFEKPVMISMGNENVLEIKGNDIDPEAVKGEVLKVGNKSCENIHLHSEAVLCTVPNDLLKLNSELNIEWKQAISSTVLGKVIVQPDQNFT

Fold Avidity [2] [fold] | Kd [3] [nM] | Kd [4] [nM] | Binder | also measured
– | – | – | MYT4826 (antibody, V domains shown, Emibetuzumab variant) VH: QVQLVQSGAEVKKPGASVKVSCKASGYTFTHYYMHWVRQAPGQGLEWMGRVNPNRRHTTYNQKFEGRVTMTTDTSTSTAYMELRSLRSDDTAVYYCARANWLDYWGQGTTVTVSS VL: DIQMTQSPSSLSASVGDRVTITCSVSSSVSSIYLHWYQQKPGKAPKLLIYSTSNLASGVPSRFSGSGSGTDFTLTISSLQPEDFATYYCQVYSGYPLTFGGGTKVEIKR | binding result [1]: binds
> 50 | 1.34 | > 200 | MYT5309 (antibody, V domains shown, Emibetuzumab variant) VH: QVQLVQSGAEVKKPGASVKVSCKASGYTFTHYYMHWVRQAPGQGLEWMGRVNPNRRGTTYNQKFEGRVTMTTDTSTSTAYMELRSLRSDDTAVYYCARANWLDYWGQGTTVTVSS VL: DIQMTQSPSSLSASVGDRVTITCSVSSSVSSIYLHWYQQKPGKAPKLLIYSTSNLASGVPSRFSGSGSGTDFTLTISSLQPEDFATYYCQHYSGYPLTFGGGTKVEIKR | –
> 100 | 1.02 | > 100 | MYT4837 (antibody, V domains shown, Emibetuzumab variant) VH: QVQLVQSGAEVKKPGASVKVSCKASGYTFTHYYMHWVRQAPGQGLEWMGRVNPHRRHTTYNQKFEGRVTMTTDTSTSTAYMELRSLRSDDTAVYYCARANWLDYWGQGTTVTVSS VL: DIQMTQSPSSLSASVGDRVTITCSVSSSVSSIYLHWYQQKPGKAPKLLIYSTSNLASGVPSRFSGSGSGTDFTLTISSLQPEDFATYYCQVYSGYPLTFGGGTKVEIKR | –
– | – | – | MYT4849 (antibody, V domains shown, Emibetuzumab variant) VH: QVQLVQSGAEVKKPGASVKVSCKASGYTFTDYYMHWVRQAPGQGLEWMGRVNPNRRGTTYNQKFEGRVTMTTDTSTSTAYMELRSLRSDDTAVYYCARANWLDYWGQGTTVTVSS VL: DIQMTQSPSSLSASVGDRVTITCSVSSSVSSIHLHWYQQKPGKAPKLLIYHTSNLASGVPSRFSGSGSGTDFTLTISSLQPEDFATYYCQVYSGYPLTFGGGTKVEIKR | binding result [5]: binds
– | – | – | MYT4827 (antibody, V domains shown, Emibetuzumab variant) VH: QVQLVQSGAEVKKPGASVKVSCKASGYTFTHYYMHWVRQAPGQGLEWMGRVNPNRRGTTYNQKFEGRVTMTTDTSTSTAYMELRSLRSDDTAVYYCARAHWLDYWGQGTTVTVSS VL: DIQMTQSPSSLSASVGDRVTITCSVSSSVSSIYLHWYQQKPGKAPKLLIYSTSNLASGVPSRFSGSGSGTDFTLTISSLQPEDFATYYCQVYSGYPLTFGGGTKVEIKR | binding result [6]: binds
– | – | – | MYT4888 (antibody, V domains shown, P3D12 variant; also called MYTH4888) VH: QVQLVQSGAEVKKPGASVKVSCKASGYTFTSYWMHWVKQAPGQGLDWIGYIKPSTDNTEYNQKFKDKATLTADKSTSTAYMELSSLRSEDTAVYYCARSYGNYPLHDYWGQGTTVTVSS VL: QIVLTQSPAILSLSPGERATLSCSASSSVTSNYLYWYQQKPGSSPKLLIYSTSNLASGVPARFSGSGSGTSYTLTISSLEAEDAASYFCHQWSSYPPTFGSGTKLEIKR | binding result [7]: binds
0.7 | 0.292 | 0.2 | MYT4305 (P3D12) (antibody, V domains shown, Human IgG1; also called P3D12 anti-cMET) VH: QVQLVQSGAEVKKPGASVKVSCKASGYTFTSYWMHWVKQAPGQGLDWIGYIKPSTDNTEYNQKFKDKATLTADKSTSTAYMELSSLRSEDTAVYYCARSYGNYPLMDYWGQGTTVTVSS VL: QIVLTQSPAILSLSPGERATLSCSASSSVTSNYLYWYQQKPGSSPKLLIYSTSNLASGVPARFSGSGSGTSYTLTISSLEAEDAASYFCHQWSSYPPTFGSGTKLEIK | –
– | – | – | MYT5367 (antibody, V domains shown, P3D12 variant) VH: QVQLVQSGAEVKKPGASVKVSCKASGYTFTSYWMHWVKQAPGQGLDWIGHIKPSTDNTEYNQKFKDKATLTADKSTSTAYMELSSLRSEDTAVYYCARSYGNYPLMDYWGQGTTVTVSS VL: QIVLTQSPAILSLSPGERATLSCSASSSVTSNYLYWYQQKPGSSPKLLIYSTSNLASGVPARFSGSGSGTSYTLTISSLEAEDAASYFCHQWSHYHPTFGSGTKLEIKR | binding result [1]: binds
– | – | – | MYT5344 (antibody, V domains shown, P3D12 variant) VH: QVQLVQSGAEVKKPGASVKVSCKASGYTFTSYWMHWVKQAPGQGLDWIGYIKHSTDNTEYNQKFKDKATLTADKSTSTAYMELSSLRSEDTAVYYCARSYGNYPLMDYWGQGTTVTVSS VL: QIVLTQSPAILSLSPGERATLSCSASSSVTSHYLYWYQQKPGSSPKLLIYSTSNLASGVPARFSGSGSGTSYTLTISSLEAEDAASYFCHQWSSYPPTFGSGTKLEIKR | binding result [1]: binds
> 200 | 0.486 | > 100 | MYT5351 (antibody, V domains shown, P3D12 variant) VH: QVQLVQSGAEVKKPGASVKVSCKASGYTFTSYWMHWVKQAPGQGLDWIGHIKPSTDNTEYNQKFKDKATLTADKSTSTAYMELSSLRSEDTAVYYCARSYGNYPLMDYWGQGTTVTVSS VL: QIVLTQSPAILSLSPGERATLSCSASSSVTSNYLYWYQQKPGSSPKLLIYSHSNLASGVPARFSGSGSGTSYTLTISSLEAEDAASYFCHQWSSYPPTFGSGTKLEIKR | –
– | – | – | MYT4942 (antibody, V domains shown, Telisotuzumab variant) VH: QVQLVQSGAEVKKPGASVKVSCKASGHIFTAYTMHWVRQAPGQGLEWMGWIKPNNGLANYAQKFQGRVTMTRDTSISTAYMELSRLRSDDTAVYYCARSEITHEFDHWGQGTLVTVSS VL: DIVMTQSPDSLAVSLGERATINCKSSESVDSYANSHLHWYQQKPGQPPKLLIYRASTRESGVPDRFSGSGSGTDFTLTISSLQAEDVAVYYCQQSKEDPLTFGGGTKVEIKR | binding result [8]: binds
